Legend:
[1] = molecular target: T1, mouse CCL20-secreted alkaline phosphatase (SEAP) fusion (mouse, UniProt O89093 28-97); experiment: ELISA on CCL20-SEAP, Abs 450; x axis 'ug/ml' in 4-fold steps down from 10, taken as the antibody concentration as in FIG. 11C
T1 construct: Expressed in HEK293E, used as culture supernatant; also called SEAP-tagged mouse CCL20; mCCL20; not shown: secreted alkaline phosphatase (SEAP), cDNA from pSEAP-Enhancer vector (Clontech)
T1 sequence: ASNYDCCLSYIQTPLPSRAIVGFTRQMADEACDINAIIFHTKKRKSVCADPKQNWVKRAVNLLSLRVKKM

recombinant human CXCL4 [2] = molecular target: T2, recombinant human CXCL4 (human, UniProt P02776 32-101); experiment: ELISA, plate-bound chemokine (1 ug/ml), antibody 10 ug/ml, OD450
T2 construct: also called PF4
T2 sequence (looked up): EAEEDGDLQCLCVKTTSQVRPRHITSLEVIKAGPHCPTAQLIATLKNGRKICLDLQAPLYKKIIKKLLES
Outline: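 Wells coated overnight at 4 °C with 1 μg/ml recombinant human chemokine in PBS, blocked 1 h, then incubated 1 h at room temperature with antibodies at 10 μg/ml in 0.02% Tween 20/PBS. TMB development 15–30 min, stopped with 2 M H2SO4, OD read at 450 nm.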

recombinant human CXCL4 [3] = molecular target: T2, recombinant human CXCL4; experiment: SPR (Biacore): antibody captured on the sensor chip, free chemokine injected; concentration not shown
[4] = molecular target: T3, cynomolgus CCL20-secreted alkaline phosphatase (SEAP) fusion (cynomolgus monkey); experiment: ELISA, serially diluted CCL20-SEAP captured by anti-alkaline phosphatase antibody, antibody at 1 µg/ml
T3 construct: also called cCCL20; cynomolgus CCL20-SEAP; not shown: the SEAP reporter (cDNA from Clontech pSEAP-Enhancer) and its junction to CCL20
T3 chain: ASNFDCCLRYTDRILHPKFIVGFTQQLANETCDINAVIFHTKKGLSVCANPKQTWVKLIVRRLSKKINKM
Method: (§1) To test whether the chimeric and humanized antibodies can bind to mouse, cynomolgus, or rhesus macaque CCL20 orthologs, we used ELISA assays as illustrated in FIG. 15. Recombinant secreted alkaline phosphatase (SEAP)-chemokine fusion proteins were engineered as described in Example 2, expressed and purified for all of the CCL20 orthologs tested. Nunc MaxiSorb flat-bottom black plates were coated with 1 μg/ml mouse anti-placental alkaline phosphatase antibody (Pierce, cat# MA1-19354) in 50 mM sodium bicarbonate, pH 9.4, overnight at 4° C. Plates were then blocked using 1× phosphate buffered saline with Tween-20 (PBST) with 5% bovine serum albumin (BSA) for 2 hours at room temperature. 20 nM SEAP-CCL20 fusion proteins were serially diluted 5-fold in Opti-MEM medium (Invitrogen). Chimeric and humanized (HC2/LC3 and HC2/LK3) antibodies were diluted to 1 μg/ml in 1×PBST with 5% BSA, added to the plates, and incubated for 1 hr at room temperature. The plates were then washed with 1×PBST with 5% BSA three times. […] QuantaBlu fluorescent HRP substrate (Pierce cat#15169) was added for detection of bound antibody by measuring fluorescence in a Molecular Devices M5 (Excitation 325 nm/Emission 420 nm) plate reader. […]

[5] = molecular target: T3, cynomolgus CCL20-secreted alkaline …; experiment: ELISA, serially diluted CCL20-SEAP captured by anti-alkaline phosphatase antibody, antibody at 1 µg/ml; cynomolgus CCL20-SEAP
Method: To test whether the chimeric and humanized antibodies can bind to mouse, cynomolgus, or rhesus macaque CCL20 orthologs, we used ELISA assays as illustrated in FIG. 15. Recombinant secreted alkaline phosphatase (SEAP)-chemokine fusion proteins were engineered as described in Example 2, expressed and purified for all of the CCL20 orthologs tested. Nunc MaxiSorb flat-bottom black plates were coated with 1 μg/ml mouse anti-placental alkaline phosphatase antibody (Pierce, cat# MA1-19354) in 50 mM sodium bicarbonate, pH 9.4, overnight at 4° C. Plates were then blocked using 1× phosphate buffered saline with Tween-20 (PBST) with 5% bovine serum albumin (BSA) for 2 hours at room temperature. 20 nM SEAP-CCL20 fusion proteins were serially diluted 5-fold in Opti-MEM medium (Invitrogen). Chimeric and humanized (HC2/LC3 and HC2/LK3) antibodies were diluted to 1 μg/ml in 1×PBST with 5% BSA, added to the plates, and incubated for 1 hr at room temperature. The plates were then washed with 1×PBST with 5% BSA three times. […] QuantaBlu fluorescent HRP substrate (Pierce cat#15169) was added for detection of bound antibody by measuring fluorescence in a Molecular Devices M5 (Excitation 325 nm/Emission 420 nm) plate reader.

[6] = molecular target: T4, rhesus CCL20-secreted alkaline phosphatase (SEAP) fusion (rhesus monkey); experiment: ELISA, serially diluted CCL20-SEAP captured by anti-alkaline phosphatase antibody, antibody at 1 µg/ml; rhesus CCL20-SEAP
T4 construct: also called rCCL20; rhesus CCL20-SEAP; not shown: the SEAP reporter (cDNA from Clontech pSEAP-Enhancer) and its junction to CCL20
T4 chain: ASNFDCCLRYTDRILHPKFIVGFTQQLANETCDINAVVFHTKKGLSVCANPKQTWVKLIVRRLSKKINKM
Method: as §1

B1: mouse anti-human CCL20 monoclonal antibody 36F7C10 (antibody, V domains shown)
VH: QVQLQQPGAELVKPGASVKMSCKASGYTFTNYWMHWVKQRPGQGLEWIGVIDPSDSYTTYNQKFKGKATLTVDTSSSTAYMQLSSLTSEDSAVYYCTRGNYGVDYAMDYWGQGTSVTVSS
VL: DIQMTQSPASLSASVGETVTITCGASENIYGALNWYQRKQGKSPQLLIYGATNLADGMSSRFSGSGSGRQYSLKISSLHPDDVATYYCQNVLITPYTFGGGTKLEIK
notes: Mouse hybridoma antibody; also called MouseMAb; parental mouse clone 36F7C10
[1]
  binding result: no binding (tested: 10 ug/ml)
Recombinant human CXCL4 [2]
  binding result: no binding (tested: 10 ug/ml)

B2: chimeric 36F7C10 antibody (36F7C10-hFc) (antibody, V domains shown)
VH: QVQLQQPGAELVKPGASVKMSCKASGYTFTNYWMHWVKQRPGQGLEWIGVIDPSDSYTTYNQKFKGKATLTVDTSSSTAYMQLSSLTSEDSAVYYCTRGNYGVDYAMDYWGQGTSVTVSS
VL: DIQMTQSPASLSASVGETVTITCGASENIYGALNWYQRKQGKSPQLLIYGATNLADGMSSRFSGSGSGRQYSLKISSLHPDDVATYYCQNVLITPYTFGGGTKLEIK
notes: also called chimeric 36F710; Chimeric MAb
Recombinant human CXCL4 [3]
  binding result: no binding

B3: humanized anti-human CCL20 antibody 36LC3/36HC2 (antibody, human IgG1, kappa, V domains shown)
VH: QVQLVQSGAEVKKPGASVKVSCKASGYTFTNYWMHWVRQAPGQGLEWMGVIDPSDSYTTYAQKFQGRVTMTVDTSTSTVYMELSSLRSEDTAVYYCARGNYGVDYAMDYWGQGTLVTVSS
VL: DIQMTQSPSSLSASVGDRVTITCRASENIYGALNWYQQKPGKAPKLLIYGATNLADGVPSRFSGSGSGRQYSLTISSLQPEDFATYYCQNVLITPYTFGGGTKLEIKR
notes: expressed in HEK293 cells; also called HC2/LC3; HC2LC3
[4]
  fold difference of EC50 versus human CCL20: 5.4 fold
[5]
  EC50: 0.34 nM
[6]
  EC50: 0.101 nM

Reference: patent US20160046707A1 (EISAI R AND D MANAGEMENT, published 2016)
